These results are taken from patent EP1882698A1 (Chemokine Therapeutics Corp., dated 2008).

Non-standard residues stand in square brackets, D forms with d. No end group written: not given here. Aun = NCCCCCCCCCCC(=O)O

In this assay the target is T1, CXCR3 receptor (UniProt P49682 1-368, limits assumed).
T1 sequence (looked up): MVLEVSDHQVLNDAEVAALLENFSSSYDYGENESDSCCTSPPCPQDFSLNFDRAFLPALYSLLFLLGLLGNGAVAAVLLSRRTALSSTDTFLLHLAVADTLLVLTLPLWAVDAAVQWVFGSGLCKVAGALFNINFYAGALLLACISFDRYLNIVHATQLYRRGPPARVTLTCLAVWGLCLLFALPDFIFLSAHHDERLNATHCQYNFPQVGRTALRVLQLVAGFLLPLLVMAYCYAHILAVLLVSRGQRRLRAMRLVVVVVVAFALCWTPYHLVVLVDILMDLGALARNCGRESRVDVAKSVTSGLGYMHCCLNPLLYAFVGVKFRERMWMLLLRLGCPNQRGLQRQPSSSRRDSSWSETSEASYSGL
As to the kind of experiment: cell-based or functional assay.
Take VPLSRTPRCTCISIS[Aun]ESKAIKNLLKAVSK (cysteine pairing not given here) [[Pro^7]-IP-10-(1-15)-[linker]-IP-10-(58-71)]: the “calcium mobilization activity of CXCR-3/300-19 cells, dosage 1.2 µM” value (“calcium mobilization activity … dosage 1.2 µM” below) was determined as 16; the “calcium mobilization activity of CXCR-3/300-19 cells, dosage 3.7 µM” value (from here on “calcium mobilization activity … dosage 3.7 µM”) was 14; the “calcium mobilization activity of CXCR-3/300-19 cells, dosage 11.1 µM” value (shortened to “calcium mobilization activity … dosage 11.1 µM”) turned out to be 14.4; the “calcium mobilization activity of CXCR-3/300-19 cells, dosage 33.3 µM” value (“calcium mobilization activity … dosage 33.3 µM” for short) was determined as 18.6. In addition, the “calcium mobilization activity of CXCR-3/300-19 cells, dosage 100 µM” value (“calcium mobilization activity … dosage 100 µM” below) is 55.1.
With Ac-VPLSRTVRCTCISISN[Aun]LKAVSKEMSKRSP (cysteine pairing not given here) [Acetylated-IP-10-(1-16)-[linker]-IP-10-(66-78)], the “calcium mobilization activity … dosage 1.2 µM” value stood at 12.6; the “calcium mobilization activity … dosage 3.7 µM” value is 12.7; the “calcium mobilization activity … dosage 11.1 µM” value came out at 14.1; the “calcium mobilization activity … dosage 33.3 µM” value came to 20. Also, the “calcium mobilization activity … dosage 100 µM” value came out at 52.9.
On to Ac-VPLSRTVRATFISISN[Aun]LKAVSKEMSKRSP [Acetylated-[Ala^9,Phe^11]-IP-10-(1-16)-[linker]-IP-10-(66-78)], for which the “calcium mobilization activity … dosage 1.2 µM” value stood at 15.2; the “calcium mobilization activity … dosage 3.7 µM” value stood at 13.8; the “calcium mobilization activity … dosage 11.1 µM” value was 15.4; the “calcium mobilization activity … dosage 33.3 µM” value worked out at 20. Further, the “calcium mobilization activity … dosage 100 µM” value is 3.1.
Consider VPLSRTVRSTSISIS[Aun]ESKAIENLLKAVSK [[Ser^9,Ser^11,Glu^63]-IP-10-(1-15)-[linker]-IP-10-(58-71)], for which the “calcium mobilization activity … dosage 1.2 µM” value came to 18.8; the “calcium mobilization activity … dosage 3.7 µM” value came out at 18.5; the “calcium mobilization activity … dosage 11.1 µM” value worked out at 17.2; the “calcium mobilization activity … dosage 33.3 µM” value turned out to be 18.9. In addition, the “calcium mobilization activity … dosage 100 µM” value was determined as 46.6.
On the same counts, the results for VPLSRTVRSTSISIS[Aun]ESKAIKNLLEAVSK [[Ser^9,Ser^11,Glu^67]-IP-10-(1-15)-[linker]-IP-10-(58-71)] are 17.4, 15.4, 12.5, 13.3 and 3.4.
